B1: EH domain-containing protein 3 (Mus musculus), Q9QXY6 (parent)
chain: MFSWLGNDDRRKKDPEVFQTVSDGLKKLYKTKLLPLEEYYRFHEFHSPALEDADFDNKPMVLLVGQYSTGKTTFIRYLLEQDFPGMRIGPEPTTDSFIAVMQGDVEGIIPGNALVVDPKKPFRKLNAFGNAFLNRFVCAQLPNAVLESISVIDTPGILSGEKQRISRGYDFAAVLEWFAERVDRIILLFDAHKLDISDEFSEVIKALKNHEDKMRVVLNKADQIETQQLMRVYGALMWSLGKIVNTPEVIRVYIGSFWSHPLLIPDNRKLFEAEEQDLFRDIQSLPRNAALRKLNDLIKRARLAKVHAYIISSLKKEMPSVFGKDTKKKELVNNLAEIYGRIEREHQISPGDFPNLKRMQDQLQAQDFSKFQPLKSKLLEVVDDMLAHDIAQLMVLVRQEETQRPVQMVKGGAFEGTLQGPFGHGYGEGAGEGIDDAEWVVARDKPMYDEIFYTLSPVDGKITGANAKKEMVRSKLPNSVLGKIWKLADIDKDGMLDDEEFALANHLIKVKLEGHELPSELPAHLLPPSKRKVSE
partner: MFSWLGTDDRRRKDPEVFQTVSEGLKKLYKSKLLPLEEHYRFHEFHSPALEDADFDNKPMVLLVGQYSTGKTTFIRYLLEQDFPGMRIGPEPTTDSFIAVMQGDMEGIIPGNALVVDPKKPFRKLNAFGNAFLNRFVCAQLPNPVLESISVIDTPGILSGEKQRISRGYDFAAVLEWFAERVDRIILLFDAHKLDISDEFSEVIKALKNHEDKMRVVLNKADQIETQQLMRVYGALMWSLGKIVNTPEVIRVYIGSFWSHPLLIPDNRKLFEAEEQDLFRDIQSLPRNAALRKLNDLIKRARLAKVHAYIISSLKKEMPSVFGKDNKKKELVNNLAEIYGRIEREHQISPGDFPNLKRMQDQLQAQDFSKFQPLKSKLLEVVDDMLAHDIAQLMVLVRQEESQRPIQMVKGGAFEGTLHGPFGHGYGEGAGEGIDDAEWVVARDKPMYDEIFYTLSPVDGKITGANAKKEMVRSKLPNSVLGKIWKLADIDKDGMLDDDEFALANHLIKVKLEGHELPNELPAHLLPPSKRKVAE
B2: EH domain-containing protein 3 (Homo sapiens), Q9NZN3 (parent)
chain: B1 partner
partner: B1 chain

Variants of: B1
Details: with ehd3_human EHD3, Q9NZN3

effect of a mutation on the interaction	Variant
with no effect	MFSWLGNDDRRKKDPEVFQTVSDGLKKLYKTKLLPLEEYYRFHEFHSPALEDADFDNKPMVLLVGQYSTGKTTFIRYLLEQDFPGMRIGPEPTTDSFIAVMQGDVEGIIPGNALVVDPKKPFRKLNAFGNAFLNRFVCAQLPNAVLESISVIDTPGILSGEKQRISRGYDFAAVLEWFAERVDRIILLFDAHKLDISDEFSEVIKALKNHEDKMRVVLNKADQIETQQLMRVYGALMWSLGKIVNTPEVIRVYIGSFWSHPLLIPDNRKLFEAEEQDLFRDIQSLPRNAALRKLNDLIKRARLAKVHAYIISSLRKEMPSVFGKDTKKKELVNNLAEIYGRIEREHQISPGDFPNLKRMQDQLQAQDFSKFQPLKSKLLEVVDDMLAHDIAQLMVLVRQEETQRPVQMVKGGAFEGTLQGPFGHGYGEGAGEGIDDAEWVVARDKPMYDEIFYTLSPVDGKITGANAKKEMVRSKLPNSVLGKIWKLADIDKDGMLDDEEFALANHLIKVRLEGHELPSELPAHLLPPSKRKVSE [K315R;K511R]

Variants of: B1
Details: with ehd3_human EHD3, Q9NZN3
Remark: another data set of the same source

effect of a mutation on the interaction	Variant
decreasing interaction	MFSWLGNDDRRKKDPEVFQTVSDGLKKLYKTKLLPLEEYYRFHEFHSPALEDADFDNKPMVLLVGQYSTGKTTFIRYLLEQDFPGMRIGPEPTTDSFIAVMQGDVEGIIPGNALVVDPKKPFRKLNAFGNAFLNRFVCAQLPNAVLESISVIDTPGILSGEKQRISRGYDFAAVLEWFAERVDRIILLFDAHKLDISDEFSEVIKALKNHEDKMRVVLNKADQIETQQLMRVYGALMWSLGKIVNTPEVIRVYIGSFWSHPLLIPDNRKLFEAEEQDLFRDIQSLPRNAALRKLNDLIKRARLAKVHAYIISSLRKEMPSVFGKDTKKKELVNNLAEIYGRIEREHQISPGDFPNLKRMQDQLQAQDFSKFQPLKSKLLEVVDDMLAHDIAQLMVLVRQEETQRPVQMVKGGAFEGTLQGPFGHGYGEGAGEGIDDAEWVVARDKPMYDEIFYTLSPVDGKITGANAKKEMVRSKLPNSVLGKIWKLADIDKDGMLDDEEFALANHLIKVRLEGHELPSELPAHLLPPSKRKVSE [K315R;K511R]
decreasing interaction	MFSWLGNDDRRKKDPEVFQTVSDGLKKLYKTKLLPLEEYYRFHEFHSPALEDADFDNKPMVLLVGQYSTGKTTFIRYLLEQDFPGMRIGPEPTTDSFIAVMQGDVEGIIPGNALVVDPKKPFRKLNAFGNAFLNRFVCAQLPNAVLESISVIDTPGILSGEKQRISRGYDFAAVLEWFAERVDRIILLFDAHKLDISDEFSEVIKALKNHEDKMRVVLNKADQIETQQLMRVYGALMWSLGKIVNTPEVIRVYIGSFWSHPLLIPDNRKLFEAEEQDLFRDIQSLPRNAALRKLNDLIKRARLAKVHAYIISSLKKEMPSVFGKDTKKKELVNNLAEIYGRIEREHQISPGDFPNLKRMQDQLQAQDFSKFQPLKSKLLEVVDDMLAHDIAQLMVLVRQEETQRPVQMVKGGAFEGTLQGPFGHGYGEGAGEGIDDAEWVVARDKPMYDEIFYTLSPVDGKITGANAKKEMVRSKLPNSVLGKIWKLADIDKDGMLDDEEFALANHLIKVRLEGHELPSELPAHLLPPSKRKVSE [K511R]

Variants of: B2
Details: with ehd3_mouse Ehd3, Q9QXY6

effect of a mutation on the interaction	Variant
with no effect	MFSWLGTDDRRRKDPEVFQTVSEGLKKLYKSKLLPLEEHYRFHEFHSPALEDADFDNKPMVLLVGQYSTGKTTFIRYLLEQDFPGMRIGPEPTTDSFIAVMQGDMEGIIPGNALVVDPKKPFRKLNAFGNAFLNRFVCAQLPNPVLESISVIDTPGILSGEKQRISRGYDFAAVLEWFAERVDRIILLFDAHKLDISDEFSEVIKALKNHEDKMRVVLNKADQIETQQLMRVYGALMWSLGKIVNTPEVIRVYIGSFWSHPLLIPDNRKLFEAEEQDLFRDIQSLPRNAALRKLNDLIKRARLAKVHAYIISSLRKEMPSVFGKDNKKKELVNNLAEIYGRIEREHQISPGDFPNLKRMQDQLQAQDFSKFQPLKSKLLEVVDDMLAHDIAQLMVLVRQEESQRPIQMVKGGAFEGTLHGPFGHGYGEGAGEGIDDAEWVVARDKPMYDEIFYTLSPVDGKITGANAKKEMVRSKLPNSVLGKIWKLADIDKDGMLDDDEFALANHLIKVKLEGHELPNELPAHLLPPSKRKVAE [K315R]

Variants of: B2
Details: with ehd3_mouse Ehd3, Q9QXY6
Remark: another data set of the same source

effect of a mutation on the interaction	Variant
with no effect	MFSWLGTDDRRRKDPEVFQTVSEGLKKLYKSKLLPLEEHYRFHEFHSPALEDADFDNKPMVLLVGQYSTGKTTFIRYLLEQDFPGMRIGPEPTTDSFIAVMQGDMEGIIPGNALVVDPKKPFRKLNAFGNAFLNRFVCAQLPNPVLESISVIDTPGILSGEKQRISRGYDFAAVLEWFAERVDRIILLFDAHKLDISDEFSEVIKALKNHEDKMRVVLNKADQIETQQLMRVYGALMWSLGKIVNTPEVIRVYIGSFWSHPLLIPDNRKLFEAEEQDLFRDIQSLPRNAALRKLNDLIKRARLAKVHAYIISSLRKEMPSVFGKDNKKKELVNNLAEIYGRIEREHQISPGDFPNLKRMQDQLQAQDFSKFQPLKSKLLEVVDDMLAHDIAQLMVLVRQEESQRPIQMVKGGAFEGTLHGPFGHGYGEGAGEGIDDAEWVVARDKPMYDEIFYTLSPVDGKITGANAKKEMVRSKLPNSVLGKIWKLADIDKDGMLDDDEFALANHLIKVRLEGHELPNELPAHLLPPSKRKVAE [K315R;K511R]

Variants of: B2
Details: with ehd3_mouse Ehd3, Q9QXY6
Remark: another data set of the same source

effect of a mutation on the interaction	Variant
with no effect	MFSWLGTDDRRRKDPEVFQTVSEGLKKLYKSKLLPLEEHYRFHEFHSPALEDADFDNKPMVLLVGQYSTGKTTFIRYLLEQDFPGMRIGPEPTTDSFIAVMQGDMEGIIPGNALVVDPKKPFRKLNAFGNAFLNRFVCAQLPNPVLESISVIDTPGILSGEKQRISRGYDFAAVLEWFAERVDRIILLFDAHKLDISDEFSEVIKALKNHEDKMRVVLNKADQIETQQLMRVYGALMWSLGKIVNTPEVIRVYIGSFWSHPLLIPDNRKLFEAEEQDLFRDIQSLPRNAALRKLNDLIKRARLAKVHAYIISSLKKEMPSVFGKDNKKKELVNNLAEIYGRIEREHQISPGDFPNLKRMQDQLQAQDFSKFQPLKSKLLEVVDDMLAHDIAQLMVLVRQEESQRPIQMVKGGAFEGTLHGPFGHGYGEGAGEGIDDAEWVVARDKPMYDEIFYTLSPVDGKITGANAKKEMVRSKLPNSVLGKIWKLADIDKDGMLDDDEFALANHLIKVRLEGHELPNELPAHLLPPSKRKVAE [K511R]

From IntAct's records for PubMed 26226295
